Measurements from patent US20250034594A1, “RNA-GUIDED GENOME RECOMBINEERING AT KILOBASE SCALE” (THE BOARD OF TRUSTEES OF THE LELAND STANFORD JUNIOR …, priority 2021, published 2025).

What was measured:
Assay type in all cases: cell-based
[1] = system: gene editing with Cas9; experiment: Screen of 322 new SSAP proteins, gene editing activity with Cas9 (Table 5); set-up: Cas9 with SSAP activity: scale not given here
In short: (§1)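 First, 322 new single-strand annealing proteins are identified from sequences. Next they are synthesized. Finally each is assayed for editing in combination with Cas9 and, separately, dCas9.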

[2] = system: gene editing with dCas9; experiment: Screen of 322 new SSAP proteins, gene editing activity with dCas9 (Table 5); set-up: dCas9 with SSAP activity: scale not given here
In short: as §1

[3] = system: gene editing with Cas9 and dCas9; experiment: Screen of 322 new SSAP proteins, activity across all experiments (Cas9 and dCas9, Table 5); set-up: scale not given here
In short: as §1

B1: SSAP_141: SEQ ID NO: 310; Hungatella hathewayi (protein, listed as Hungatella hathewayi)
chain: RRDRNVTAVKQELEKKAAGTSQAVKLTKNMTIVDMVKALEPEIKRALPSILTPERFTRMALSAINNTPKLAECTPMSFIAALMNAAQLGLEPNTPLGQAYLIPYKNKGVLECQFQLGYRGMIDLAYRNERMQSIEAQTVYEHDEFFYELGLHPALVHRPTFEDRGEIRAFYAIFRLDNGGYRFEVMSKSYVDAYAMRYSKAFTSEFSPWKSNYEGMAKKTVIKQLLKYAPVKSEFQKAITLDETVKTELSVDMSEVQNEDLSETLTAESAA
What does the source list for B1?
Cas9 with SSAP activity [1]: −2.047; Cas9 with SSAP activity (normalized) [1]: −0.694; dCas9 with SSAP activity [2]: −1.179; dCas9 with SSAP activity (normalized) [2]: −0.244; Activity across all experiments [3]: −1.613

B2: SSAP_119: SEQ ID NO: 288; Bacillus albus (protein, listed as Bacillus albus)
chain: ATNEKLKNQLANRKESAPATPEQTVEAYMKKMAPKMAEVLPKHMDMGRMSRMALTTMRTSPKLLNCTVSSLMGAVMQAVQLGLEPGLLGHCYILPYKGEATFIIGYKGMIDLARRSGHIQSIYAHAVHENDEFDYELGLHPKLEHKPVHGDRGAFVGAYAVAHFKDGGYQMEFMPKSEIEKRRKRSASANSSFSPWKSDYEEMAKKTVIRYIFKYLPISIEVQLLAAQDEVVRKDITEEPEFIEADPIDVEQPTTEGDGQQEFSIEE
How did the “Cas9 with SSAP activity” value [1] turn out when B2 was run?
The value was −0.911.

And the “Cas9 with SSAP activity (normalized)” value [1]?
Its value is −3.635.

What about the “dCas9 with SSAP activity” value [2] of the same molecule?
The value was −1.189.

What about the “dCas9 with SSAP activity (normalized)” value [2] of the same molecule?
Its value is −0.361.

What about the “Activity across all experiments” value [3] of the same molecule?
The value was −1.050.

B3: SSAP_59: SEQ ID NO: 228 (protein)
chain: SEIQQQAEAQTQAHPTAVLDDYRGAIASVAPPGTNIDLFIRMTKSNVNRSDEIVAAVKRNPGLFMQAVMDSAALGHIPGSEYYYLTPRRDGISGIESWKGVAKRIFNTGRYQRIVCEVVYEGEQWEFQPGEDLKPKHVIDWDARQVGSKVRFTYAYAVDFEGNPSTVAVCTKLDLDKAQKQSRGKVWDQWYEQMAKKTAIKRLEDFVDTSAVDLRADGSSRRHSAEVAE
With B3 as the molecule, how does the “Cas9 with SSAP activity” value [1] read?
Its value is 0.218.

What about the “Cas9 with SSAP activity (normalized)” value [1] of the same molecule?
Its value is 0.538.

And the “dCas9 with SSAP activity” value [2]?
Its value is −1.201.

And the “dCas9 with SSAP activity (normalized)” value [2]?
Its value is −0.336.

And the “Activity across all experiments” value [3]?
Its value is −0.491.

B4: SSAP_151: SEQ ID NO: 320; Mammaliicoccus (protein, listed as Mammaliicoccus sp.)
chain: ATNESIKNQVASRKKNEVQNKSPKTQLNDLLIKMGPEIQRALPKHMDADRMARIAMTAVSTTPKLLECDQMSFIGALMQASQLGVEPNTGLGQAYLIPYGGKVQFQLSYKGLIDLATRSGQYKAIYAHEVFPNDEFNYQYGLFKNLEHIPSQEPEGEPIGYYAVYHLKNGGYDFVYWTRERVDKHAKDFSQAVQKGWTSPWKTNYDAMAKKTVLKEVLKYAPKSIEMNKAVNSDSTIKDEINEDMSSVIDITDYEEVNDQQEEKKEESK
Which results are given for B4?
Cas9 with SSAP activity [1]: −4.713; Cas9 with SSAP activity (normalized) [1]: −0.683; dCas9 with SSAP activity [2]: −1.257; dCas9 with SSAP activity (normalized) [2]: −0.422; Activity across all experiments [3]: −2.985

B5: SSAP_117: SEQ ID NO: 286; Enterocloster bolteae (protein, listed as Enterocloster bolteae)
chain: GVNVKHELEQRAAGQGASVRLTKNMTIVDMVKALEPEIRRALPAVLTPERFTRMALSSINNTPELAECTPMSFIAALLNAAQLGLEPNTPLGQAYLIPYKNKGKLECQFQLGYKGLIDLAYRTGQVQIIQAQVVREFDSFEYQYGLDSKLVHKPGEGARGEITYVYGLFKLSNGGYGFEVSNKTEMDTFAARYSKSFGSKYSPWTEDYESMAKKTVIKRVLKYAPISSDFQKALSMDETIKTGIAVDMSEIRNECLPEEAGSEAA
How did the “Cas9 with SSAP activity” value [1] turn out when B5 was run?
Its value is −4.474.

And the “Cas9 with SSAP activity (normalized)” value [1]?
Its value is −1.192.

What about the “dCas9 with SSAP activity” value [2] of the same molecule?
Its value is −1.263.

What about the “dCas9 with SSAP activity (normalized)” value [2] of the same molecule?
Its value is −0.179.

What about the “Activity across all experiments” value [3] of the same molecule?
The value was −2.868.

B6: SSAP_308: SEQ ID NO: 477; uncultured organism (protein)
chain: SNELQNIKPEVFGEVEDKLGSLADNNGIDLPENYSARNALKQAYLKLQSKDEPVFDKYKDETIYNALLDTLTQGLNPGKDQVYYIGYGNHLTAQKSYFGNIALAKRMAGVQEVSSNVILEGDEVDISIERGQQVIESHDRNFDSMDGQVKGAYAVISFEDERKDKYEIMTLKELKQAWAQGKSFGGNGKSPHHKFTKEMAKKTVINRALKPLIKASDDSGLIKEKPKLEKLKDGQQERTEGEKIEEVDVDKEEVVEVDYDV
modifications: uncultured organism
Which results are given for B6?
Cas9 with SSAP activity [1]: −0.693; Cas9 with SSAP activity (normalized) [1]: −1.286; dCas9 with SSAP activity [2]: −1.277; dCas9 with SSAP activity (normalized) [2]: −1.011; Activity across all experiments [3]: −0.985

B7: SSAP_19: SEQ ID NO: 188 (protein)
chain: NTPTMKRKFEEVLHENANAFMSNVMTLVSNDSYLAESEPMSILSGALTAATLNLGLDKNLGYAYLVPFNTKNKQTGKWERKAQFILGYKGYIQLAQRSGKYKALNVIEVYEGELLSWNRLTEEFEFDPNGRQSDDVIGYVGYFELLNGFKKTVYWTKQEIEAHRIANSKDKEKTKLSGVWATDYNAMARKTVLRNMLSKWGILSIEMQEATTSDEKVQQMQEDGNIISETEVEENTTMKTAEVINEADSDSLNQTDLFDTKNPPLE
B7 was tested. Which “Cas9 with SSAP activity” value [1] did it give?
The value was −0.298.

What about the “Cas9 with SSAP activity (normalized)” value [1] of the same molecule?
The value was −0.329.

And the “dCas9 with SSAP activity” value [2]?
The value was −1.396.

And the “dCas9 with SSAP activity (normalized)” value [2]?
Its value is −0.389.

What about the “Activity across all experiments” value [3] of the same molecule?
Its value is −0.847.

B8: SSAP_111: SEQ ID NO: 280; Siminovitchia fordii (protein, listed as Siminovitchia fordii)
chain: ATNQDIKNQLANKANGNKPASPANTIAAYLKKMGPEIEKALPKHMDADRLARIALTTIRTTPKLLECNISSLMGAVMQSAQLGLEPGLIGHCYIIPYGKEATFIIGYKGMIDLARRSGQIQNIYAHAVFENDEFDYALGLHPKLEHKPAGSNRGEIIGAYAVAHFKDGGYQFEYMAKEDIEKRKSRSAAARSKHSPWATDYEEMAKKTVIRHMWKYLPISVEIQQQAIQDEVVRKDVTSEPEFIDMEDMPEVEEGQSEESEQVEAPFD
How did the “Cas9 with SSAP activity” value [1] turn out when B8 was run?
Its value is 0.173.

What about the “Cas9 with SSAP activity (normalized)” value [1] of the same molecule?
The value was 0.129.

And the “dCas9 with SSAP activity” value [2]?
The value was −1.417.

And the “dCas9 with SSAP activity (normalized)” value [2]?
The value was −0.419.

What about the “Activity across all experiments” value [3] of the same molecule?
The value was −0.622.

B9: SSAP_92: SEQ ID NO: 261; Edwardsiella piscicida (protein, listed as Edwardsiella piscicida)
chain: TNNQQPPIATADLQKAQSQAPAVKPDQKLINFINQPSMKGQIAAALPRHMAPDRMIRIITTEIRKTPALATCDMQSFIGSVVQCSQLGLEPGGALGHAYLLPFGNGKAKSGQSNVQLIIGYRGMIDLARRSGQIVSISARTVRDGDQFHYEYGLDETLKHVPGDNESSPITHVYAVAKLKDGGVQFEVMTFNQIEKVRGQSKAGNNGPWQTHWEEMAKKTVIRRLFKYLPVSIEMQKAVILDEKAEANIDQENASVISAEFSVVED
What does the source list for B9?
Cas9 with SSAP activity [1]: 2.341; Cas9 with SSAP activity (normalized) [1]: 2.795; dCas9 with SSAP activity [2]: −1.516; dCas9 with SSAP activity (normalized) [2]: −0.177; Activity across all experiments [3]: 0.412

B10: SSAP_153: SEQ ID NO: 322; Staphylococcus intermedius (protein, listed as Staphylococcus intermedius)
chain: ANANSFKEQVSKNEVQETNNEKPKGPRQQVSDLLERMAPEIQKALPSHMSAERMARIAMTAISSNPQLLECNPRSLIGALLQASQIGLEPNTALGQAYLIPYYNHKKKEFEAQLQLSYLGLIELATRTGQYKAIYAHEVYKEDEFYYEYGLHKNLVHKPVDDPNGEPVGYYAVYHLQNGGFDFAYWTKNKIELHAGNYSKAVQKGWNSPWKTDFNAMAKKTVLKDLLKYAPKSIEISQAVGSDSKVTEINKQGEIIDITEYGQEALEG
What does the source list for B10?
Cas9 with SSAP activity [1]: −2.201; Cas9 with SSAP activity (normalized) [1]: −0.296; dCas9 with SSAP activity [2]: −1.534; dCas9 with SSAP activity (normalized) [2]: −0.179; Activity across all experiments [3]: −1.867

B11: SSAP_75: SEQ ID NO: 244 (protein)
chain: ANELGIFSVDNLNMTTIKQYLDGGGKASDAELVLLINLCKQNNMNPFMKEVYFIKYGNQPAQIVVSRDFYRKRAFQNPNFAGIEVGVIVLNKDGVLEHNEGTFKTHEQELVGAWARVHLKNTEIPVYVAVSYDEYVQMKDGHPNKMWTNKPCTMLGKVAESQALRMAFPAEFSGTYGEEELPEPEKEPREVNGVKEPDRAQIESFDKEDYAAKKIEELKEKAQPQKEVVKETGEVIDKITAEDF
Which “Cas9 with SSAP activity” value [1] does the source give for B11 here?
Its value is 0.284.

What about the “Cas9 with SSAP activity (normalized)” value [1] of the same molecule?
Its value is 0.225.

What about the “dCas9 with SSAP activity” value [2] of the same molecule?
The value was −1.658.

And the “dCas9 with SSAP activity (normalized)” value [2]?
Its value is −0.897.

What about the “Activity across all experiments” value [3] of the same molecule?
Its value is −0.687.

B12: SSAP_296: SEQ ID NO: 465; Peptostreptococcaceae bacterium VA2 (protein)
chain: QPFLVQRYPHLDVVLNDQVHVLKSFFFQNHIILYLYKYIECLQIFHKPLLKGDRGKVIGYYAVYHLEPNGYNFVFMTYDEVKNHGKKYSKNFEGGIWEKEFDSMAKKTVIKKLLKYAPLSIEMQKAVTFDESVKGSIDNDMLLVESIEDVEEIQLDTNI
modifications: Peptostreptococcaceae bacterium VA2
What does the source list for B12?
Cas9 with SSAP activity [1]: 0.244; Cas9 with SSAP activity (normalized) [1]: 0.617; dCas9 with SSAP activity [2]: −1.749; dCas9 with SSAP activity (normalized) [2]: −0.598; Activity across all experiments [3]: −0.753

B13: SSAP_135: SEQ ID NO: 304; Amycolatopsis arida (protein, listed as Amycolatopsis arida)
chain: HGTALNPERFTRVALTVIRQSADLQRCRPESLLGALMTSAQLGLEPGPLGEAYLVPYGDQVTFIPGYRGLIKLAWQSGQLRHISARVVHEGDRFSYSYGLHPDLIHQPTRGDRGPITDVYAAATLIDGGVEFEVLDVATVETIRARSRAGRKGPWVTDWEAMARKTAIRQLAKWLPMATVMSRAIAAEGTVRTDLDADALDDLTADPGPEVLDADPAWDGPEPPGDQARNQEPTTQGDA
What does the source list for B13?
Cas9 with SSAP activity [1]: −1.283; Cas9 with SSAP activity (normalized) [1]: −0.722; dCas9 with SSAP activity [2]: −1.826; dCas9 with SSAP activity (normalized) [2]: −2.544; Activity across all experiments [3]: −1.554
